From patent publication US20250002600A1 (Genmab, published 2025)
Values joined by “and” are separate entries in the source; they are usually repeats but may differ in a detail not shown here. Equal entries are not always repeated.

B1: IgG1-PD1 (antibody)
heavy: QVQLVESGGGLVQPGTSLRLSCSVSGFSLYSYNMGWVRQAPGKGLEYIGIISGGTIGHYASWAKGRFTISRDTSKTTLYLQMNSLTTEDTATYFCARAFYDDYDYNVWGPGTLVTVSSASTKGPSVFPLAPSSKSTSGGTAALGCLVKDYFPEPVTVSWNSGALTSGVHTFPAVLQSSGLYSLSSVVTVPSSSLGTQTYICNVNHKPSNTKVDKRVEPKSCDKTHTCPPCPAPEFERGPSVFLFPPKPKDTLMISRTPEVTCVVVDVSHEDPEVKFNWYVDGVEVHNAKTKPREEQYNSTYRVVSVLTVLHQDWLNGKEYKCKVSNKALPAPIEKTISKAKGQPREPQVYTLPPSREEMTKNQVSLTCLVKGFYPSDIAVEWESNGQPENNYKTTPPVLDSDGSFFLYSKLTVDKSRWQQGNVFSCSVMHEALHNHYTQKSLSLSPG
light: AIQLTQSPSSLSASVGGTVTITCQSSQSVYGNNQLSWYQQKPGQPPKLLIYQASKLETGVPSRFRGSGSGTQFTLTISSLQSEDFATYYCAGGYSSSSDTTFGGGTEVVVKRTVAAPSVFIFPPSDEQLKSGTASVVCLLNNFYPREAKVQWKVDNALQSGNSQESVTEQDSKDSTYSLSSTLTLSKADYEKHKVYACEVTHQGLSSPVTKSFNRGEC
B2: IgG1-ctrl (antibody)
heavy: not shown
light: EIVLTQSPGTLSLSPGERATFSCRSSHSIRSRRVAWYQHKPGQAPRLVIHGVSNRASGISDRFSGSGSGTDFTLTITRVEPEDFALYYCQVYGASSYTFGQGTKLERKRTVAAPSVFIFPPSDEQLKSGTASVVCLLNNFYPREAKVQWKVDNALQSGNSQESVTEQDSKDSTYSLSSTLTLSKADYEKHKVYACEVTHQGLSSPVTKSFNRGEC
notes: also called IgG1-b12 with wild-type Fc region

Key:
[1] = biological target: human PD-1 expressed on reporter Jurkat T cells (PD-1 Effector Cells) (human, UniProt Q15116 25-288); assay: cell-based or functional assay
human PD-1 expressed on reporter Jurkat T cells (PD-1 Effector Cells), sequence (Q15116 25-288): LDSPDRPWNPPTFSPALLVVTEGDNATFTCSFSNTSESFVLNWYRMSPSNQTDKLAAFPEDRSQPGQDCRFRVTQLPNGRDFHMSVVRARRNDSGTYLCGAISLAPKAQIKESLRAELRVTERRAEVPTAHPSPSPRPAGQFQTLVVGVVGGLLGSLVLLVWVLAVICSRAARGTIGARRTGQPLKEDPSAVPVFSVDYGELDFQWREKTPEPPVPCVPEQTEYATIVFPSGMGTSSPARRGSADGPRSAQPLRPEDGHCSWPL

[2] = biological target: T1, human FcγRIa transiently expressed on CHO-S cells (human, UniProt P12314 16-374); assay: flow cytometry on CHO-S cells transiently expressing human FcγRIa, PE-conjugated goat anti-human IgG F(ab')2, % PE+ cells
T1 construct: whole, on cells; also called cell surface expressed FcγRIa
T1 sequence (P12314 16-374): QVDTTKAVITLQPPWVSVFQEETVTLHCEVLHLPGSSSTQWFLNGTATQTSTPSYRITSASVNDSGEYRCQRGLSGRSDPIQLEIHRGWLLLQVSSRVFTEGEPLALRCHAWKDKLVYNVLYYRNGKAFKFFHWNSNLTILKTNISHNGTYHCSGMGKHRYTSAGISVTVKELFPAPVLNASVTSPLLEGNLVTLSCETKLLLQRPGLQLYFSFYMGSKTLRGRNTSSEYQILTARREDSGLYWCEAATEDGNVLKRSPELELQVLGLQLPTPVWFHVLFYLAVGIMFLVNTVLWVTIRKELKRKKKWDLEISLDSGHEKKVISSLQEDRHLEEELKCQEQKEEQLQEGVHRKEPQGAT
Description: Cells were centrifuged, supernatant was removed, and cells (30,000 cells in 50 μL) were incubated with 50 μL of the antibody dilutions for 30 min at 4° C. Cells were washed twice with GMB FACS buffer and incubated with 50 μL secondary antibody (PE-conjugated goat-anti-human IgG F(ab′)2; 1:500) for 30 min at 4° C., protected from light. Cells were washed twice with GMB FACS buffer and resuspended in GMB FACS buffer supplemented with 2 mM EDTA and DAPI viability marker (1:5,000). Antibody binding to viable cells was analyzed by flow cytometry on an Intellicyt iQue PLUS Screener (Intellicyt Corporation) using FlowJo software by gating on PE-positive, DAPI-negative cells. Binding curves were analyzed using non-linear regression analysis (four-parameter dose-response curve fits) in GraphPad Prism.

Binder	EC50 of PD-1/PD-L1 checkpoint blockade (luminescence, reporter assay) [1]	EC50 (read off the curve) [2] [µg/mL]
B1	0.165 µg/mL and 1.12 nM	–
B2	–	~0.01
